This passage reports Kd results from patent US20250270332A1 (ANTLERA THERAPEUTICS, published 2025).

T1: FZD4 recombinant extracellular domain, Fc fusion (FZD-Fc) (UniProt Q9ULV1 37-180)
T1 construct: extracellular domain; also called FZD4 ECD; not shown: Fc part of the FZD-Fc protein
T1 sequence (looked up): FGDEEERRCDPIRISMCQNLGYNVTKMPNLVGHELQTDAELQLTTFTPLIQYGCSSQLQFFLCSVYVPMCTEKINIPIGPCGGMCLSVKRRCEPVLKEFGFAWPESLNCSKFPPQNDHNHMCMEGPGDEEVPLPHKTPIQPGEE

B1: FZD4 Agonist ANT20 (bispecific antibody)
heavy 1: EVQLVESGGGLVQPGGSLRLSCAASGFDFTAYAMHWVRQAPGKGLEWVASIYPSGGYTAYADSVKGRFTISADTSKNTAYLQMNSLRAEDTAVYYCARRSYYFALDYWGQGTLVTVSSGGGGSDIQMTQSPSSLSASVGDRVTITCRASQSVSSAVAWYQQKPGKAPKLLIYSASSLYSGVPSRFSGSRSGTDFTLTISSLQPEDFATYYCQQASYAPITFGQGTKVEIKGGGGSGGGGSEPKTSDKTHTCPPCPAPELLGGPSVFLFPPKPKDTLMISRTPEVTCVVVAVSHEDPEVKFNWYVDGVEVHNAKTKPREEQYGSTYRVVSVLTVLHQDWLNGKEYKCKVSNKALPAPIEKTISKAKGQPREPMVFDLPPSREEMTKNQVSLWCMVKGFYPSDIAVEWESNGQPENNYKTTPPVLDSDGSFFLYSKLTVDKSRWQQGNVFSCSVMHEALHNHYTQKSLSLSPGKGGGSGGGSGGGSGGGSGSTGEVQLVESGGGLVQPGGSLRLSCAASGFTLSSYSMHWVRQAPGKGLEWVAYISSYYGYTYYADSVKGRFTISADTSKNTAYLQMNSLRAEDTAVYYCARPAPGHWGFDYWGQGTLVTVSSASTKGPSVFPLAPSSKSTSGGTAALGCLVKDYFPEPVTVSWNSGALTSGVHTFPAVLQSSGLYSLSSVVTVPSSSLGTQTYICNVNHKPSNTKVDKKVEPKSCDKTHT
heavy 2: EVQLVESGGGLVQPGGSLRLSCAASGFNLSYYYMHWVRQAPGKGLEWVASIYSSYGYTYYADSVKGRFTISADTSKNTAYLQMNSLRAEDTAVYYCARWSHVSGHYSGMDYWGQGTLVTVSSGGGGSDIQMTQSPSSLSASVGDRVTITCRASQSVSSAVAWYQQKPGKAPKLLIYSASDLYSGVPSRFSGSRSGTDFTLTISSLQPEDFATYYCQQYAGAGLITFGQGTKVEIKGGGGSGGGGSEPKSSDKTHTCPPCPAPELLGGPSVFLFPPKPKDTLMISRTPEVTCVVVAVSHEDPEVKFNWYVDGVEVHNAKTKPREEQYGSTYRVVSVLTVLHQDWLNGKEYKCKVSNKALPAPIEKTISKAKGQPREPQVYTLPPIRELMTSNQVSLSCAVKGFYPSDIAVEWESNGQPENNYKTTPPVLDSDGSFFLVSKLTVDKSRWQQGNVFSCSVMHEALHNHYTQKSLSLSPGKGGGSGGGSGGGSGGGSGSTGEVQLVESGGGLVQPGGSLRLSCAASGFTLSSYSMHWVRQAPGKGLEWVAYISSYYGYTYYADSVKGRFTISADTSKNTAYLQMNSLRAEDTAVYYCARPAPGHWGFDYWGQGTLVTVSSASTKGPSVFPLAPSSKSTSGGTAALGCLVKDYFPEPVTVSWNSGALTSGVHTFPAVLQSSGLYSLSSVVTVPSSSLGTQTYICNVNHKPSNTKVDKKVEPKSCDKTHT
light: DIQMTQSPSSLSASVGDRVTITCRASQSVSSAVAWYQQKPGKAPKLLIYSASSLYSGVPSRFSGSRSGTDFTLTISSLQPEDFATYYCQQWYYAPITFGQGTKVEIKRTVAAPSVFIFPPSDEQLKSGTASVVCLLNNFYPREAKVQWKVDNALQSGNSQESVTEQDSKDSTYSLSSTLTLSKADYEKHKVYACEVTHQGLSSPVTKSFNRGEC
notes: Diabody-Fc-Fab format
B2: FZD4 Agonist ANT21 (bispecific antibody)
heavy 1: EVQLVESGGGLVQPGGSLRLSCAASGFNFSSSSIHWVRQAPGKGLEWVASISSSYGYTYYADSVKGRFTISADTSKNTAYLQMNSLRAEDTAVYYCARGGSGVSHYGSVYYSWWALDYWGQGTLVTVSSGGGGSDIQMTQSPSSLSASVGDRVTITCRASQSVSSAVAWYQQKPGKAPKLLIYSASSLYSGVPSRFSGSRSGTDFTLTISSLQPEDFATYYCQQYWAYYSPITFGQGTKVEIKGGGGSGGGGSEPKTSDKTHTCPPCPAPELLGGPSVFLFPPKPKDTLMISRTPEVTCVVVAVSHEDPEVKFNWYVDGVEVHNAKTKPREEQYGSTYRVVSVLTVLHQDWLNGKEYKCKVSNKALPAPIEKTISKAKGQPREPMVFDLPPSREEMTKNQVSLWCMVKGFYPSDIAVEWESNGQPENNYKTTPPVLDSDGSFFLYSKLTVDKSRWQQGNVFSCSVMHEALHNHYTQKSLSLSPGKGGGSGGGSGGGSGGGSGSTGEVQLVESGGGLVQPGGSLRLSCAASGFTLSSYSMHWVRQAPGKGLEWVAYISSYYGYTYYADSVKGRFTISADTSKNTAYLQMNSLRAEDTAVYYCARPAPGHWGFDYWGQGTLVTVSSASTKGPSVFPLAPSSKSTSGGTAALGCLVKDYFPEPVTVSWNSGALTSGVHTFPAVLQSSGLYSLSSVVTVPSSSLGTQTYICNVNHKPSNTKVDKKVEPKSCDKTHT
heavy 2: EVQLVESGGGLVQPGGSLRLSCAASGFNFSSSSIHWVRQAPGKGLEWVASISSSYGYTYYADSVKGRFTISADTSKNTAYLQMNSLRAEDTAVYYCARSWAMDYWGQGTLVTVSSGGGGSDIQMTQSPSSLSASVGDRVTITCRASQSVSSAVAWYQQKPGKAPKLLIYSASSLYSGVPSRFSGSRSGTDFTLTISSLQPEDFATYYCQQSSYSLITFGQGTKVEIKGGGGSGGGGSEPKSSDKTHTCPPCPAPELLGGPSVFLFPPKPKDTLMISRTPEVTCVVVAVSHEDPEVKFNWYVDGVEVHNAKTKPREEQYGSTYRVVSVLTVLHQDWLNGKEYKCKVSNKALPAPIEKTISKAKGQPREPQVYTLPPIRELMTSNQVSLSCAVKGFYPSDIAVEWESNGQPENNYKTTPPVLDSDGSFFLVSKLTVDKSRWQQGNVFSCSVMHEALHNHYTQKSLSLSPGKGGGSGGGSGGGSGGGSGSTGEVQLVESGGGLVQPGGSLRLSCAASGFTLSSYSMHWVRQAPGKGLEWVAYISSYYGYTYYADSVKGRFTISADTSKNTAYLQMNSLRAEDTAVYYCARPAPGHWGFDYWGQGTLVTVSSASTKGPSVFPLAPSSKSTSGGTAALGCLVKDYFPEPVTVSWNSGALTSGVHTFPAVLQSSGLYSLSSVVTVPSSSLGTQTYICNVNHKPSNTKVDKKVEPKSCDKTHT
light: B1 light
notes: Diabody-Fc-Fab format
B3: FZD4 Agonist ANT39 (bispecific antibody, human IgG1, kappa, N297G)
heavy 1: EVQLVESGGGLVQPGGSLRLSCAASGFDFTAYAMHWVRQAPGKGLEWVASIYPSGGYTAYADSVKGRFTISADTSKNTAYLQMNSLRAEDTAVYYCARRSYYFALDYWGQGTLVTVSSGGGGSDIQMTQSPSSLSASVGDRVTITCRASQSVSSAVAWYQQKPGKAPKLLIYSASSLYSGVPSRFSGSRSGTDFTLTISSLQPEDFATYYCQQYWAYYSPITFGQGTKVEIKGGGGSGGGGSEPKTSDKTHTCPPCPAPELLGGPSVFLFPPKPKDTLMISRTPEVTCVVVAVSHEDPEVKFNWYVDGVEVHNAKTKPREEQYGSTYRVVSVLTVLHQDWLNGKEYKCKVSNKALPAPIEKTISKAKGQPREPMVFDLPPSREEMTKNQVSLWCMVKGFYPSDIAVEWESNGQPENNYKTTPPVLDSDGSFFLYSKLTVDKSRWQQGNVFSCSVMHEALHNHYTQKSLSLSPGKGGGSGGGSGGGSGGGSGSTGEVQLVESGGGLVQPGGSLRLSCAASGFTLSSYSMHWVRQAPGKGLEWVAYISSYDSITDYADSVKGRFTISADTSKNTAYLQMNSLRAEDTAVYYCARPAVGHMAFDYWGQGTLVTVSSASTKGPSVFPLAPSSKSTSGGTAALGCLVKDYFPEPVTVSWNSGALTSGVHTFPAVLQSSGLYSLSSVVTVPSSSLGTQTYICNVNHKPSNTKVDKKVEPKSCDKTHT
heavy 2: EVQLVESGGGLVQPGGSLRLSCAASGFDFSSSSIHWVRQAPGKGLEWVASISSSYGYTYYADSVKGRFTISADTSKNTAYLQMNSLRAEDTAVYYCARSWAMDYWGQGTLVTVSSGGGGSDIQMTQSPSSLSASVGDRVTITCRASQSVSSAVAWYQQKPGKAPKLLIYSASDLYSGVPSRFSGSRSGTDFTLTISSLQPEDFATYYCQQYAGAGLITFGQGTKVEIKGGGGSGGGGSEPKSSDKTHTCPPCPAPELLGGPSVFLFPPKPKDTLMISRTPEVTCVVVAVSHEDPEVKFNWYVDGVEVHNAKTKPREEQYGSTYRVVSVLTVLHQDWLNGKEYKCKVSNKALPAPIEKTISKAKGQPREPQVYTLPPIRELMTSNQVSLSCAVKGFYPSDIAVEWESNGQPENNYKTTPPVLDSDGSFFLVSKLTVDKSRWQQGNVFSCSVMHEALHNHYTQKSLSLSPGKGGGSGGGSGGGSGGGSGSTGEVQLVESGGGLVQPGGSLRLSCAASGFTLSSYSMHWVRQAPGKGLEWVAYISSYDSITDYADSVKGRFTISADTSKNTAYLQMNSLRAEDTAVYYCARPAVGHMAFDYWGQGTLVTVSSASTKGPSVFPLAPSSKSTSGGTAALGCLVKDYFPEPVTVSWNSGALTSGVHTFPAVLQSSGLYSLSSVVTVPSSSLGTQTYICNVNHKPSNTKVDKKVEPKSCDKTHT
light: B1 light with Y93N
notes: Diabody-Fc-Fab format, DANG Fc

Numbering of substitutions follows the chain as printed.

The assay deals with T1, FZD4 recombinant extracellular domain, …. The experiment in a line: BLI (Octet), FZD-Fc captured on AHQ sensors, agonist in solution; apparent affinity. Background: BLI is a label-free optical method that tracks binding on a fibre tip over time.
For the molecule B1, the Kd came to 0.7 nM. As for B2, the Kd is 2.2 nM. Under B3 stands 0.3 nM.
